From the supplement of paper PMC7877785
± gives the uncertainty stated by the source.

Experiment: self-splicing fitness, log relative to wild type (ln ratio); higher = more splicing; Tetrahymena group I intron in knt gene, E. coli kanamycin selection, DiMSum; sequences stand for … in CUCUCU…GGAGGGAAAAGUUAUCAGGCAUGCACCUGGUAGCUAGUCUUUAAACCAAUAGAUUGCAUCGGUUUAAAAGGCAAGACCGUCAAAUUGCGGGAAAGGGGUCAACAGCCGUUCAGUACCAAGUCUCAGGGGAAACUUUGAGAUGGCCUUGCAAAGGGUAUGGUAAUAAGCUGACGGACAUGGUCCUAACCACGCAGCCAAGUCCUAAGUCAACAGAUCUUCUGUUGAUAUGGAUGCAGUUCACAGACUAAAUGUCGGUCGGGGAAGAUGUAUUCUUCUCAUAAGAUAUAGUCGGACCUCUCCUUAAUGGGAGCUAGCGGAUGAAGUGAUGCAACACUGGAGCCGCUGGGAACUAAUUUGUAUGCGAAAGUAUAUUGAUUAGUUUUGGAGUACUCGUGGUCG
Summary of the method: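 Colonies from six replicate transformations of E. coli BL21(DE3) were pooled and amplicon-sequenced on an Illumina HiSeq 2500. The library placed an intron with all eight P1ex-region nucleotides randomised inside the knt kanamycin-resistance gene on pET-22b(+), and cells grew overnight at 37°C or 30°C on LB agar with or without 25 μg/mL kanamycin (plus 100 μg/mL carbenicillin, 50 μM IPTG, 0.2% rhamnose). Fitness is the DiMSum error-weighted combination of wild-type-normalised replicate fold changes, kanamycin versus none.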

Sequence	self-splicing fitness (ln) (30 °C)	self-splicing fitness (ln) (37 °C)
AGCAAGCAAUAUUACGAACU	-0.731 ± 0.12	-0.593 ± 0.14
AGCAAGCAAUAUUACGAAGG	-4.66 ± 0.36	-1.54 ± 0.22
AGCAAGCAAUAUUACGACUA	-0.478 ± 0.11	-0.326 ± 0.13
AGCAAGCAAUAUUACGAUGC	-2.08 ± 0.11	-1.71 ± 0.14
AGCAAGCAAUAUUACGCCCG	-0.279 ± 0.08	-0.0697 ± 0.11
AGCAAGCAAUAUUACGCCGG	-3.71 ± 0.37	-1.81 ± 0.24
AGCAAGCAAUAUUACGCGGC	-3.39 ± 0.34	-1.82 ± 0.19
AGCAAGCAAUAUUACGCUCU	-3 ± 0.22	-1.57 ± 0.17
AGCAAGCAAUAUUACGGCCC	0.104 ± 0.19	-0.363 ± 0.28
AGCAAGCAAUAUUACGGCGA	-0.386 ± 0.094	-0.039 ± 0.11
AGCAAGCAAUAUUACGGCGG	-1.29 ± 0.083	0.133 ± 0.11
AGCAAGCAAUAUUACGGUGU	-2.65 ± 0.13	-0.608 ± 0.1
AGCAAGCAAUAUUACGUACG	-1.99 ± 0.13	-0.695 ± 0.11
AGCAAGCAAUAUUACGUACU	-0.47 ± 0.057	-0.368 ± 0.075
AGCAAGCAAUAUUACGUAUU	-3.02 ± 0.14	-1.24 ± 0.11
AGCAAGCAAUAUUACGUCUA	-0.673 ± 0.062	-0.456 ± 0.08
AGCAAGCAAUAUUACGUCUC	-2.61 ± 0.29	
AGCAAGCAAUAUUACGUGGG	-3.44 ± 0.12	-2.37 ± 0.16
AGCCAGCAAUAUUACGAACA	-2.8 ± 0.24	-1.98 ± 0.33
AGCCAGCAAUAUUACGAAUC		-1.94 ± 0.39
AGCCAGCAAUAUUACGAGAA	-2.99 ± 0.36	-1.42 ± 0.3

Sequence	self-splicing fitness (ln) (30 °C)	self-splicing fitness (ln) (37 °C)
AGCCAGCAAUAUUACGAGAC	-3.57 ± 0.18	-2.61 ± 0.16
AGCCAGCAAUAUUACGAGGC	-3.6 ± 0.2	-2.02 ± 0.19
AGCCAGCAAUAUUACGAGGG	-2.58 ± 0.15	-2.38 ± 0.17
AGCCAGCAAUAUUACGAUAA	-4.66 ± 0.46	-2.89 ± 0.17
AGCCAGCAAUAUUACGAUAU	-3.25 ± 0.16	-1.83 ± 0.14
AGCCAGCAAUAUUACGAUCU	-0.174 ± 0.11	0.256 ± 0.1
AGCCAGCAAUAUUACGCAGA	-3.39 ± 0.18	-2.94 ± 0.18
AGCCAGCAAUAUUACGCAGU	-4 ± 0.2	-3.46 ± 0.21
AGCCAGCAAUAUUACGCCCA	-1.93 ± 0.2	-1.72 ± 0.25
AGCCAGCAAUAUUACGCCCU	0.0781 ± 0.11	0.234 ± 0.13
AGCCAGCAAUAUUACGCCGC	-2.98 ± 0.28	-3.25 ± 0.37
AGCCAGCAAUAUUACGCCUG	-2.37 ± 0.16	-2.11 ± 0.27
AGCCAGCAAUAUUACGCGAC	-0.935 ± 0.13	-1.78 ± 0.2
AGCCAGCAAUAUUACGCUGU	-3.57 ± 0.2	-3.32 ± 0.19
AGCCAGCAAUAUUACGGAAA	-1.88 ± 0.3	-1.3 ± 0.25
AGCCAGCAAUAUUACGGACA	-0.814 ± 0.1	-0.491 ± 0.13
AGCCAGCAAUAUUACGGACC	-0.609 ± 0.095	-0.386 ± 0.11
AGCCAGCAAUAUUACGGACU	-1.93 ± 0.088	-0.917 ± 0.096
AGCCAGCAAUAUUACGGAUG	-1.85 ± 0.1	-0.824 ± 0.12
AGCCAGCAAUAUUACGGCGA	-1.33 ± 0.095	-0.342 ± 0.11
AGCCAGCAAUAUUACGGGCG	-2.66 ± 0.1	-0.918 ± 0.1
